Experiment [1] deals with T1, mouse VISTA recombinant protein (Sino Biological Inc., Cat. #51550-M08H), biotinylated (mouse, UniProt Q9D659 33-191, biotinylated using EZ-LINK NHS-PEG4 biotin).
T1 construct: Bought protein; also called mouse VISTA protein
T1 sequence (looked up): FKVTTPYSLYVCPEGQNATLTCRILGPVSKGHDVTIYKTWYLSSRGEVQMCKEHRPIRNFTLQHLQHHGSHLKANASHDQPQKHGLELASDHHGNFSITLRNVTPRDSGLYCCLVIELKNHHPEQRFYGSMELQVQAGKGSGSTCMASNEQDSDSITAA
As to the kind of experiment: BLI (Octet QKe), biotinylated VISTA on streptavidin sensors, antibody at 5 µg/ml. How it is done:
(§1) Method: The binding affinity of anti-VISTA antibodies was determined with bio-layer interferometry using Octet QKe (ForteBio). Human VISTA recombinant protein (Sino Biological Inc., Cat. #13482-H08H) mouse VISTA (Sino Biological Inc., Cat. #51550-M08H) were biotinylated using EZ-LINK NHS-PEG4 biotin (Thermo Fisher Scientific). Streptavidin biosensors (ForteBio) were used to load biotinylated VISTA protein (300 seconds at 5 μg/ml). The baseline measurement was stabilized for 60 seconds in 1× kinetics buffer (ForteBio) before anti-VISTA antibodies at 5 μg/ml were allowed to associate for 300 seconds with captured protein. Then the sensors were dissociated in 1× kinetics buffer for 600 seconds. Data analysis was performed on ForteBio Data Analysis HT 11.1 software.
(In BLI a coated tip is dipped into the sample, and binding shifts an interference pattern.)

The target of experiment [2] is T1, mouse VISTA recombinant protein (Sino …). The experiment is described as follows: BLI (Octet QKe), biotinylated VISTA on streptavidin sensors; the parental antibody is the affinity comparator. The procedure:
as §1

Experiment [3] concerns the target T2, Human VISTA recombinant protein (Sino Biological Inc., Cat. #13482-H08H), biotinylated (human, UniProt Q9H7M9 33-194, biotinylated using EZ-LINK NHS-PEG4 biotin).
T2 construct: Bought protein
T2 sequence: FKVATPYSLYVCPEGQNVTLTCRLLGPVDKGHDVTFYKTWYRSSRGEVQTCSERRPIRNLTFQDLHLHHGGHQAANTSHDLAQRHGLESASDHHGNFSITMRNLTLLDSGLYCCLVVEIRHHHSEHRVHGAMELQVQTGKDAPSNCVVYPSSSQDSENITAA
The experiment is described as follows: BLI (Octet QKe), biotinylated VISTA on streptavidin sensors, antibody at 5 µg/ml. How it is done:
as §1

In experiment [4] the target is T3, mouse VISTA expressed on Jurkat cells (mouse, UniProt Q9D659 33-308).
T3 construct: whole, on cells; also called Jurkat-mouse VISTA; mouse VISTA expressing cells
T3 sequence (looked up): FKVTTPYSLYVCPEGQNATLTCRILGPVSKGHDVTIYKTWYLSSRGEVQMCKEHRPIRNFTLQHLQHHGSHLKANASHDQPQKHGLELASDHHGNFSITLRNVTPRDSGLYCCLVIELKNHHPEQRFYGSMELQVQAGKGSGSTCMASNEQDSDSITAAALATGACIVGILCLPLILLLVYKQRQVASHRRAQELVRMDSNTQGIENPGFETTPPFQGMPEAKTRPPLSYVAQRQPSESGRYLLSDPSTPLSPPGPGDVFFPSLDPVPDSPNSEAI
As to the kind of experiment: flow cytometry on Jurkat cells expressing mouse VISTA (FIG. 3A-D); the parental antibody is the binding comparator. A general note: In flow cytometry, cells or beads pass a laser one at a time.

For experiment [5], the target named is T3, mouse VISTA expressed on Jurkat cells. The experiment is described as follows: flow cytometry on Jurkat cells expressing mouse VISTA (FIG. 3E).

B1: 9F9 humanized anti-VISTA antibody VH7/VL7 (antibody, V domains shown)
VH: QVQFVQSGAEVKKPGASVKVSCKASGYTFTGYWMQWVKQAPGQRLEWIGAIYPGDGDTRYSQKFKGKVTLTADTSASTAYMELSSLRSEDTAVYYCARRDYGAWFAYWGQGTLVTVSS
VL: DIKVTQSPSSLSASVGDRVTITCKASQDINSYLSWYQQKPGKAPKTLIYRANRLVDGVPSRFSGSGSGQEYTLTISSLQPEDFATYYCLQYDEFPYTFGQGTKVEIK
notes: also called 9E9 anti-VISTA VH7/VL7
Take B1: the binding result in experiment [1] is given as “binds”.

B2: 9F9 humanized anti-VISTA antibody VH9/VL9 (antibody, V domains shown)
VH: QVQFVQSGAEVKKPGSSVKVSCKASGYTFSGYWMQWVKQAPGQGLEWIGAIYPGDGDTRYSQKFKGKVTLTADESTSTAYMELSSLRSEDTAVYYCARRDYGAWFAYWGQGTLVTVSS
VL: DIKVTQSPSSLSASVGDRVTITCKASQDINSYLSWYQQKPGKAPKTLIYRANRLVDGVPSRFSGSGSGQDYTFTISSLQPEDIATYYCLQYDEFPYTFGQGTKVEIK
notes: also called 9E9 anti-VISTA VH9/VL9
With B2, the binding result in experiment [1] is “binds”.

B3: 9F9 parental anti-VISTA antibody (VH0/VL0) (antibody, V domains shown)
VH: QVQFQQSGAELARPGASVKLSCKASGYTFTGYWMQWVKQRPGQGLEWIGAIYPGDGDTRYSQKFKGKVTLTADKSSSTAYMQLSSLASEDSAVYYCARRDYGAWFAYWGQGTLVTVSA
VL: DIKVTQSPSSMYASLGERVTITCKASQDINSYLSWFQQKPGKSPKTLIYRANRLVDGVPSRFSGSGSGQDYSLTISSLDYEDMGIYYCLQYDEFPYTFGGGTKLEIK
notes: also called 9E9 parental antibody; parental 9F9 (VH0/VL0)
B3: the binding result in experiment [2], in experiment [3] and in experiment [4] was “binds” each time.

B4: 9F9 humanized anti-VISTA antibody VH14/VL15 (antibody, V domains shown)
VH: QVQLVQSGAEVMKPGASVKISCKASGYTFTGYWMQWVRQRPGQGLEWIGAIYPGDGDTRYSQKFKGKATMTADTSISTAYMELSRLRSDDTAVYYCARRDYGAWFAYWGAGTTVTVSS
VL: DIVMTQSPSSLSASVGERVTITCKASQDINSYLSWFQQKPGKAPKTLIYRANRLVDGVPSRFSGSGSGTDFTFTISSVQPEDLAIYYCLQYDEFPYTFGGGTKLEIK
notes: also called 9E9 anti-VISTA VH14/VL15
As to B4, the binding result in experiment [1] is given as “binds”.

B5: 9F9 VH15/VL15 hIgG1-LALA (antibody, V domains shown)
VH: QVQLVQSGAEVMKPGASVKLSCKASGYTFTGYWMQWVKQRPGQGLEWIGAIYPGDGDTRYSQKFKGKATMTADTSISTAYMELSRLRSDDSAVYYCARRDYGAWFAYWGAGTTVTVSS
VL: DIVMTQSPSSLSASVGERVTITCKASQDINSYLSWFQQKPGKAPKTLIYRANRLVDGVPSRFSGSGSGTDFTFTISSVQPEDLAIYYCLQYDEFPYTFGGGTKLEIK
notes: also called 9E9 VH15/VL15 using the humanized hIgG1-LALA constant region
On to B5, for which, in experiment [5], the binding result is “binds”.

B6: 9F9 VH15/VL15 hIgG2 (antibody, V domains shown)
VH: QVQLVQSGAEVMKPGASVKLSCKASGYTFTGYWMQWVKQRPGQGLEWIGAIYPGDGDTRYSQKFKGKATMTADTSISTAYMELSRLRSDDSAVYYCARRDYGAWFAYWGAGTTVTVSS
VL: DIVMTQSPSSLSASVGERVTITCKASQDINSYLSWFQQKPGKAPKTLIYRANRLVDGVPSRFSGSGSGTDFTFTISSVQPEDLAIYYCLQYDEFPYTFGGGTKLEIK
notes: also called 9E9 VH15/VL15 using the IgG2 constant region
On to B6, for which the binding result in experiment [5] is given as “binds”.

B7: 9F9 humanized anti-VISTA antibody VH15/VL15 (antibody, V domains shown)
VH: QVQLVQSGAEVMKPGASVKLSCKASGYTFTGYWMQWVKQRPGQGLEWIGAIYPGDGDTRYSQKFKGKATMTADTSISTAYMELSRLRSDDSAVYYCARRDYGAWFAYWGAGTTVTVSS
VL: DIVMTQSPSSLSASVGERVTITCKASQDINSYLSWFQQKPGKAPKTLIYRANRLVDGVPSRFSGSGSGTDFTFTISSVQPEDLAIYYCLQYDEFPYTFGGGTKLEIK
notes: also called 9E9 anti-VISTA VH15/VL15
Consider B7, for which the binding result in experiment [1] was “binds”.

For the origin of these results see US20260078185A1 (DYNAMICURE BIOTECHNOLOGY, published 2026).
